Test results as given in article doi:10.1101/2024.01.05.574393 (bioRxiv, 2024).
Residue numbers refer to the chain shown, from its start. Names may count otherwise.

B1: FLNCd24 (domain 24 of filamin C, residues 2630-2724), wild type (domain or fragment)
chain: GSKFSSDASKVVTRGPGLSQAFVGQKNSFTVDCSKAGTNMMMVGVHGPKTPCEEVYVKHMGNRVYNVTYTVKEKGDYILIVKWGDESVPGSPFKVKV
B2: FLNCd24 Y2683E (phospho-mimic, residues 2630-2724) (domain or fragment)
chain: B1 chain with Y56E
B3: FLNCd24 T2677D (phospho-mimic, residues 2630-2724) (domain or fragment)
chain: B1 chain with T50D
B4: HSPB7ACD C131S (residues 78-162 of isoform 2) (domain or fragment)
chain: not shown

Assays:
native MS [1] = target: the molecule itself; experiment: native MS
native MS [2] = target: the molecule itself; experiment: native MS; remark: listed apart in the source
[3] = target: HSPB7ΔN (residues 78-175 of isoform 2) (human, UniProt Q9UBY9-2 78-175); experiment: native MS
[4] = target: B1; experiment: crystal structure

Row | Binder | stoichiometry N (native MS [1]) | Kd (native MS [2]) | Kd [3] | binding result [4]
1 | B1 | 2 | 75.9 ± 8.4 nM | 6.7 ± 1.4 nM | –
2 | B2 | – | 4050 ± 557 nM | – | –
3 | B3 | – | 8.5 ± 1 nM | – | –
4 | B4 | – | – | – | binds
